Source: the supplement of paper PMC11246515
± gives the standard deviation of the averaged measurements.

Experiment: total protein half-life in vivo (active degradation + dilution); higher = more stable protein
[1] = E. coli NCM3722 delta-clpP delta-lon delta-hslV, growth: N-lim chemostat, doubling time 6 h
[2] = wild type E. coli NCM3722, growth: C-lim chemostat, doubling time 3 h
[3] = wild type E. coli NCM3722, growth: C-lim chemostat, doubling time 6 h
[4] = wild type E. coli NCM3722, growth: C-lim chemostat, doubling time 12 h
[5] = wild type E. coli NCM3722, growth: P-lim chemostat, doubling time 6 h
[6] = E. coli NCM3722 delta-clpP, growth: N-lim chemostat, doubling time 6 h
[7] = E. coli NCM3722 delta-hslV, growth: N-lim chemostat, doubling time 6 h
[8] = E. coli NCM3722 delta-lon, growth: N-lim chemostat, doubling time 6 h
[9] = wild type E. coli NCM3722, growth: N-lim chemostat, doubling time 6 h
[10] = wild type E. coli NCM3722, growth: N-lim chemostat, doubling time 12 h
[11] = wild type E. coli NCM3722, growth: P-lim chemostat, doubling time 12 h
[12] = E. coli NCM3722 delta-smpB, growth: N-lim chemostat, doubling time 6 h

Row | Sequence | total protein half-life in vivo [1] [h] | total protein half-life in vivo [2] [h] | total protein half-life in vivo [3] [h] | total protein half-life in vivo [4] [h] | total protein half-life in vivo [5] [h] | total protein half-life in vivo [6] [h] | total protein half-life in vivo [7] [h] | total protein half-life in vivo [8] [h] | total protein half-life in vivo [9] [h] | total protein half-life in vivo [10] [h] | total protein half-life in vivo [11] [h] | total protein half-life in vivo [12] [h]
1 | MKSLSYKRIYKSQEYLATLGTIEYRSLFGSYSLTVDDTVFAMVSDGELYLRACEQSAQYCVKHPPVWLTYKKCGRSVTLNYYRVDESLWRNQLKLVRLSKYSLDAALKEKSTRNTRERLKDLPNMSFHLEAILGEVGIKDVRALRILGAKMCWLRLRQQNSLVTEKILFMLEGAIIGIHEAALPVARRQELAEWADSLTPKQEFPAELE | 5.96 | 2.28 | 4.19 | 9.22 | 3.79 ± 0.53 | – | – | – | – | – | – | –
2 | MSDNAQLTGLCDRFRGFYPVVIDVETAGFNAKTDALLEIAAITLKMDEQGWLMPDTTLHFHVEPFVGANLQPEALAFNGIDPNDPDRGAVSEYEALHEIFKVVRKGIKASGCNRAIMVAHNANFDHSFMMAAAERASLKRNPFHPFATFDTAALAGLALGQTVLSKACQTAGMDFDSTQAHSALYDTERTAVLFCEIVNRWKRLGGWPLSAAEEV | 5.4962 ± 0.0014 | 2.54 | 5.95 ± 0.48 | – | 5.17 | 5.43 ± 0.51 | 5.13 | 6.1 | 5.89 | 8.59 | 12 ± 0.56 | –
3 | MKPTTLLLIFTFFAMPGIVYAESPFSSLQSAKEKTTVLQDLRKICTPQASLSDEAWEKLMLSDENNKQHIREAIVAMERNNQSNYWEALGKVECPDM [Q2M7X4] | 4.53 | – | – | – | – | – | – | – | – | – | – | –
4 | MFIRAPNFGRKLLLTCIVAGVMIAILVSCLQFLVAWHKHEVKYDTLITDVQKYLDTYFADLKSTTDRLQPLTLDTCQQANPELTARAAFSMNVRTFVLVKDKKTFCSSATGEMDIPLNELIPALDINKNVDMAILPGTPMVPNKPAIVIWYRNPLLKNSGVFAALNLNLTPSLFYSSRQEDYDGVALIIGNTALSTFSSRLMNVNELTDMPVRETKIAGIPLTVRLYADDWTWNDVWYAFLLGGMSGTVVGLLCYYLMSVRMRPGREIMTAIKREQFYVAYQPVVDTQALRVTGLEVLLRWRHPVAGEIPPDAFINFAESQKMIVPLTQHLFELIARDAAELEKVLPVGVKFGINIAPDHLHSESFKADIQKLLTSLPAHHFQIVLEITERDMLKEQEATQLFAWLHSVGVEIAIDDFGTGHSALIYLERFTLDYLKIDRGFINAIGTETITSPVLDAVLTLAKRLNMLTVAEGVETPEQARWLSERGVNFMQGYWISRPLPLDDFVRWLKKPYTPQW | 6.645 ± 0.021 | – | 5.92 ± 1.2 | 10.5 ± 0.13 | 5.7999 ± 0.0026 | 6.81 ± 0.3 | 6.17 ± 0.16 | 6.55 ± 1 | 5.91 ± 0.13 | 11.2 ± 0.95 | 10.4 ± 0.3 | 5.84 ± 0.17
5 | MATYYSNDFRAGLKIMLDGEPYAVEASEFVKPGKGQAFARVKLRRLLTGTRVEKTFKSTDSAEGADVVDMNLTYLYNDGEFWHFMNNETFEQLSADAKAIGDNAKWLLDQAECIVTLWNGQPISVTPPNFVELEIVDTDPGLKGDTAGTGGKPATLSTGAVVKVPLFVQIGEVIKVDTRSGEYVSRVK [P0A6N4] | – | 2.91 ± 0.13 | 4.775 ± 0.023 | 8.29 ± 0.57 | 4.32 ± 0.1 | 4.46 ± 0.85 | 4.41 ± 0.21 | 5.35 ± 0.54 | 4.24 ± 0.074 | 5.76 ± 0.19 | 8.07 ± 0.47 | 4.285 ± 0.022
6 | MMSGEHTLKAVRGSFIDVTRTIDNPEEIASALRFIEDGLLLIKQGKVEWFGEWENGKHQIPDTIRVRDYRGKLIVPGFVDTHIHYPQSEMVGAYGEQLLEWLNKHTFPTERRYEDLEYAREMSAFFIKQLLRNGTTTALVFGTVHPQSVDALFEAASHINMRMIAGKVMMDRNAPDYLLDTAESSYHQSKELIERWHKNGRLLYAITPRFAPTSSPEQMAMAQRLKEEYPDTWVHTHLCENKDEIAWVKSLYPDHDGYLDVYHQYGLTGKNCVFAHCVHLEEKEWDRLSETKSSIAFCPTSNLYLGSGLFNLKKAWQKKVKVGMGTDIGAGTTFNMLQTLNEAYKVLQLQGYRLSAYEAFYLATLGGAKSLGLDDLIGNFLPGKEADFVVMEPTATPLQQLRYDNSVSLVDKLFVMMTLGDDRSIYRTYVDGRLVYERN | 5.05 ± 0.34 | 3.26 ± 0.59 | 6.35 ± 1.1 | 10.2 ± 0.27 | 5.87 | 3.95 ± 0.22 | 4.26 ± 0.28 | 4.12 ± 0.085 | 3.78 ± 0.16 | 7.14 ± 1.4 | – | 3.79 ± 0.042
7 | MDLQHWQAQFENWLKNHHQHQDAAHDVCHFRRVWATAQKLAADDDVDMLVILTACYFHDIVSLAKNHPQRQRSSILAAEETRRLLREEFEQFPAEKIEAVCHAIAAHSFSAQIAPLTTEAKIVQDADRLEALGAIGLARVFAVSGALGVALFDGEDPFAQHRPLDDKRYALDHFQTKLLKLPQTMQTARGKQLAQHNAHFLVEFMAKLSAELAGENEGVDHKVIDAFSSAG | 4.36 ± 0.052 | 2.09 ± 0.078 | – | – | 2.83 ± 0.28 | 3.48 ± 0.37 | 2.72 | – | 2.29 | 3.19 | 4.67 ± 0.13 | 2.92 ± 0.03
8 | MSHVELQPGFDFQQAGKEVLAIERECLAELDQYINQNFTLACEKMFWCKGKVVVMGMGKSGHIGRKMAATFASTGTPSFFVHPGEAAHGDLGMVTPQDVVIAISNSGESSEITALIPVLKRLHVPLICITGRPESSMARAADVHLCVKVAKEACPLGLAPTSSTTATLVMGDALAVALLKARGFTAEDFALSHPGGALGRKLLLRVNDIMHTGDEIPHVKKTASLRDALLEVTRKNLGMTVICDDNMMIEGIFTDGDLRRVFDMGVDVRQLSIADVMTPGGIRVRPGILAVEALNLMQSRHITSVMVADGDHLLGVLHMHDLLRAGVV | – | 2.92 ± 0.13 | 5.27 ± 0.15 | 10.3 ± 2.3 | 5.827 ± 0.055 | 4.95 ± 1.9 | 4.36 ± 0.2 | 4.95 ± 0.44 | 4.29 ± 0.37 | 7.36 ± 0.41 | 11.6 ± 0.54 | 4.2 ± 0.2
